# Source: the nanobody polyreactivity screen of Harvey et al. (2022)
# Test: yeast display, Sf9 membrane polyspecificity reagent, FACS + sequencing; frameworks hold sequencing errors
# Summary of the method: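 Using colony PCR, genes from sorted yeast display clones were amplified, then sequenced on MiSeq at 2 × 250 and filtered by CDR length. The clones had been stained with 10% biotinylated, detergent-solubilized Sf9 membrane reagent for 1 hour at 4 °C and sorted by FACS into low and high (top ~1%) gates on anti-HA and streptavidin fluorescence. Polyreactivity labels come from the gate of origin.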
row,Sequence,polyreactivity (PSR sort gate)
1,QVQLVESGGGLDQAGGSLRLSCAASGSIFGSYAMGWNTPAPGKERELVAAISVSGGSTYYADSVKGRFTISRYNAKNTVYLQMNSLKPEDTAVYYCAADWQELEYDYWGQGTQVTVSS,low polyreactivity
2,QVQLVESGGGLDQAGGSLRLSCAASGSIFGSYTMGWYRQAPGKERQLVAVINWSGDRTYYADSVKGRFTISRDNAKNTVYLQMNSLKPEDTAVYYCAARERAGYSRIRYNYWGQGTQGTVSS,high polyreactivity
3,QVQLVESGGGLDQAGGSLRLSCAASGSIFGYYAMGWYRQAPGKERELVAAISRSGGSTYYADSVKGRFTISRDNAKNTVYLQMNSLKPEDTAVYYCAARPPYRVGIVPLGRREYYWGQGTQVTVSS,high polyreactivity
4,QVQLVESGGGLDQAGGSLRLSCAASGSIFNYKAMGWYRQAPGKEREMVAGISYHGDSTYADSVKGPFTISRDNAKNTVYLQMKSLKPEDTAVYYCAALGPDDWLWAGDYWGQGTQVTVSS,low polyreactivity
5,QVQLVESGGGLDQAGGSLRLSCAASGSIFSDNVMGWYRQAPGKERELVAAIRDGDTTNYADSVKGRFTISRDNAKNTVYLQMNSLKPEDTAVYYCAAVQDSSPDYSYAYLDGDRDYWGQGTQVTVSS,low polyreactivity
6,QVQLVESGGGLDQAGGSLRLSCAASGSIFSGYAMGWYRQAPGKERELVAGISSRGGRTYYADSVKGRFTISRDNAKNTVYLQMNSLKPEDTAVYYCAARWSRSRTSDRYNYWGQGTQVTVSS,high polyreactivity
7,QVQLVESGGGLDQAGGSLRLSCAASGSIFTVNAMGWYRQAPGKERELVAAIDGSSGSTNYADSVKGRFTISRDNAKNTVYLQMNSLKPEDTAVYFCAADWSYEYGYWGQGTQVTVSS,low polyreactivity
8,QVQLVESGGGLDQAGGSLRLSCAASGSILVSNDMGWYRQAPGKERELVAAISWSGGSTYYADSVKGRFTISRDNAKNTVYLQMNSLKPEDTAVYYCAAGFGFLFARQELDFDYWGQGTQVTVSS,low polyreactivity
9,QVQLVESGGGLDQAGGSLRLSCAASGSLFARNTMGGYRQAPGKERELVATITARGGSTYADSVKGRFTISRDNAKNTVYLQMNSLKPEDTAVYYCNADYGLFSRATFYGYDYWGQGTQVTVSS,low polyreactivity
10,QVQLVESGGGLDQAGGSLRLSCAASGSTFKPNVMGWYRQAPGEERELVAAISSRGGRTYYADSVKGRFTISRDNEKNNVYLQMNRLKPEDTAVYYCAALYLATGVDKAFDSWGQGTQVTVSS,high polyreactivity
11,QVQLVESGGGLDQAGGSLRLSCAASGSTFKWNAMGWYRQAPGKERELVAAISKGSVNTYYADSVKGRFTISRDNAKNTVYLQMNSLKPEDTAVYYCAADRRYPALDYWGQGTQVTVSS,high polyreactivity
12,QVQLVESGGGLDQAGGSLRLSCAASGSTFQVNVMAWYRQAPGKEREFVAGISYSGGSTYYADSVKGRFTISRDNAKNTVYLQMNSLKPEDTAVYYCAAEEDYNIAGSWTYTYDYWGQGTQVTVSS,low polyreactivity
13,QVQLVESGGGLDQAGGSLRLSCAASGSTFSGYAMGWYRQAPGKERELVATITRRGGNTYYADSVKGRFTISRDNAKNTVYLQMNSLKPEDTAVYYCAKDGRVHSPYDYWGQGTQVTVSS,low polyreactivity
14,QVQLVESGGGLDQAGGSLRLSCAASGSTFSIYTMGWYRQAPGKEREFVAAITYIGGRTYYADSVKGRFTISRDNAKNTVYLQMNSLKPEDTAVYYCAADWAYYVASYLYYTFDYWGQGTQVTVSS,low polyreactivity
15,QVQLVESGGGLDQAGGSLRLSCAASGSTFWGYTMGWYRQAPGKERELVAAITSGGSTNYADSVKGRFTISRDNAKNTVYLQMYSLKPEDTAVYYCNAVYPGRRRYRKWYIYDYWGQGTQVTVSS,high polyreactivity
16,QVQLVESGGGLDQAGGSLRLSCAASGSTFYYNTMGWYRQAPGKERELVAAISWRGVSTYYADSVKGRFTISRDNAKNTVYLQMNSLKPEDTAVYYCNAVHHYPEHIGGGYWGQGTQVTVSS,low polyreactivity
17,QVQLVESGGGLDQAGGSLRLSCAASGSTFYYYAMGWYRQAPGKERELVASISDDGSTNYADSVKGRFTISRDNAKNTVYLQMNSLKPEDTAVYYCAAVWWHQFGSAWYQMGYWGQGTQVTVSS,low polyreactivity
18,QVQLVESGGGLDQAGGSLRLSCAASGSTLGRYTMGWYRQAPGKERELVAAITRGGRTNYADSVKGRFTISRDNAKNTVYLQMNSLKPEDTAVYYCAKLYRYGDYDYWGQGTQVTVSS,high polyreactivity
19,QVQLVESGGGLDQAGGSLRLSCAASGSTLGYNAMGWYRQAPGKERVLVAAISRSGGITYYADSVKGRFTISRDTAKNTVYLQMNSLKPEDTAVYYCNAVDRTRYRPGNDYDYWGQGTQVTVSS,high polyreactivity
20,QVQLVESGGGLDQAGGSLRLSCAASGSTLGYNVMGWYRQAPGKERELVAAISGDGSTNYADSVKGRFTISRDNAKNTVYLQMNSLKPEDTAVYYCAARPGWFAGYEYWGQGTQVTVSS,low polyreactivity
21,QVQLVESGGGLDQAGGSLRLSCAASGTIFTFYTMGWYRQAPGKERELVAAINWSGSRTYYADSVKGRFTISRDNAKNTVYLQMNSLKPEDTAVYYCAAEHWFPSAPWYYSDLHYYWGQGTQVTVSS,high polyreactivity
22,QVQLVESGGGLDQAGGSLRLSCAASGYILPKNTMGWYRQAPGKERELVAAISWSGGSTFYADSVKGRFTISRDNAKNTVYLQMNSLKPEETAVYYCAADRSWSWYYRYDYWGQGTQVTVSS,low polyreactivity

row,Sequence,polyreactivity (PSR sort gate)
1,QVQLVESGGGLDQAGGSLRLSCAASGYIVRNAMGWYRQAPWKERELVAAISRRGGSTYYADSVKGRFTISRDNAKNTVYLQMNSLKPEDTAVYYCAKDNVIPSFVADYYYWGQGTQVTVSS,high polyreactivity
2,QVQLVESGGGLDQAGGSLRLSCAASGYTFGRNAMGWYRQAPGKERELVATISQRGGSTYYADSVKGRFTISRDNANNTVYLQMNSLKPEDTAVYYCAAGPIYRYRRYYYWGQGTQVTVSS,high polyreactivity
3,QVQLVESGGGLDQAGGSLRLSCAAYGGTLYYNAMGWYRQAPGKEREFVAAISSRGGRTYYADSVKGRFTISRDNAKNTVYLQMNSLKPEDTAVYYCAGSRTGRTYPSNRMYYWGQGTQVSVSS,high polyreactivity
4,QVQLVESGGGLDQAGGSLRLSCAAYGRILHFYAMGWYRQAPGKERELVSAIRWSSGRTYYADSVKGRFTISRDNAKNTVYLQMNSLKPEDTAVYYCAANNGYGMDYWGQGTQVTVSS,high polyreactivity
5,QVQLVESGGGLDQAGGSLRLSCAPSGSIFKRNAMGWYRQAPGKARELVAAISKSSGSTYYADSVKGRFTISRDNAKNTVYLQMNSLKPEDYAVYYCAAKYYSYVDKYYYWGQGTQVTVSS,high polyreactivity
6,QVQLVESGGGLDQAGGSLRLSCASSGFTFGRYAMGWYRQAPGKERELVDTITRSGVNTYYADSVKGRFTISRDNAKNTVYLQMNSLKPEDTAVSYCNVRYPLATYRLPAGEFDYWGQGTQVTVSS,high polyreactivity
7,QVQLVESGGGLDQAGGSLRLSFAASGLIFAVYAMGWYRQAPGKERELVAGISASAASTYYADSVKGRFTISRDNAKNTVYLQMNSLKPEDTAVYYCAAGFYRRGKYDYWGQGTQVTVSS,high polyreactivity
8,QVQLVESGGGLDQAGGSLRLSFAASGSTFVPNVMGWYRQAPGKERELVASITSGGITNYADSVKGRFTISRDNAKNTVYLQMNSLKPEDTAVKGDYWGQGTQVTVSS,low polyreactivity
9,QVQLVESGGGLDQAGGSLRLSSAASGFIFWFNAMRWYRQAPGTERELVATISRSDTSTYYADSVKGRFTISRDNAKNSVYLQMNSLKPEDTAVYYCATDVRETWLPEYYWGQGTEVTVSS,low polyreactivity
10,QVQLVESGGGLDQAGGSLRLSSAASGLTFFSEYAMGLYRQPPGIERELVASIDWSGDSTYYADSVKGRFTISRDNAMKTVYLQMNSLKPEYTAVYYCAKDYSTEISQEYYYWVQGTQVTVSS,high polyreactivity
11,QVQLVESGGGLDQAGGSLRLSSAASGLTFVTYAMGWYRQAPGTERELVAAISYSGGSTYYADSVKGRFTISRDNAKNTVYLQMNSLKPEDTAVYYCNARSPQPDGRPPYNYWGQGTQVTVSS,high polyreactivity
12,QVQLVESGGGLDQAGGSLRLSSAASGSIFLPNAMGWYRQAPGKEREFVADISWTGGRTYYADSVKGRFTISRDNAKHTVYLQMNRLKQEDTAVYYCAAKQYRYGLDYWGQGTQVTVSS,high polyreactivity
13,QVQLVESGGGLDQAGGSLRLSWAASGITFGWYAKGWYRLAPGKERELVASISSSGSTNYADSVKGRLTISRDNAKNTVYLQMNSQKTEDTAVYYCNKDYLLRHFYIYVIEGDYWGQGTKVTVSS,low polyreactivity
14,QVQLVESGGGLDQAGGSLRLTCAASGFIIHRYAMAWYRQGPGTEMELVAAISRSGVSTNYADSVKGRFTISRDNPKNTVYLHMYSLKTEDTSVYYCASPYYSYQSYKYWGKGTQVTVSS,high polyreactivity
15,QVQLVESGGGLDQAGGSLRLTCAASGRTFSRNAMGWYRQAPGKERELVAAISGSGGTTYYADSVKGRFTISRDNAKNTVYLQMKSLKPEDTAVYYCAADLRYAWVFWYEYWGLGTQVTVSS,low polyreactivity
16,QVQLVESGGGLDQAGGSLRLTCAAYGSTFRYNAMGWYRQAHGKERELVAAIDKRGDSTYADSVKGSFTISRDNAKNTVYLQMNSMNPDDTAVYYCAADSDSKYYYGFLLDTYEYWGQATQVTVSS,low polyreactivity
17,QVQLVESGGGLDQAGGSLRSSCAASGRIFPSYAMGWYRQAPGKERELVAAISRSGGSTYYADSVKGRFTISRDNAKNTVDLQMICLKPEDTGVYYCAKQVYSGYSTRARSRYYEYYYWGQGNQVTVSS,high polyreactivity
18,QVQLVESGGGLDQAGGTLRLSSAASGFTFGSYAMRWYRQAHGKERELVAAITRSGSTTYYADSVKGRFTISRDNAKNTFFLQMNSLKPEDTAVDYCNAYTVRSYRFDYWGQGTQVTVSS,high polyreactivity
19,QVQLVESGGGLDQARGSLRLSCAASGFTFNYYAMGWYRQAPGKERELVAAISSSGGSTYYADSVKGRFTISRDNAKNTVYLQMNSLKPDDTAVYYCAAPVLPGYNYWGQGTQVTVSS,high polyreactivity
20,QVQLVESGGGLDQARGSLRLSCAASGRTFSSNAMGWYRQAPWKERELVAAISSSGAGTYYADSVKGRFTISRDNAKNTVYLQMNSLKPEDTAVYYCAARANSYHSFTSHYDYWGQGTQVTVSS,low polyreactivity
21,QVQLVESGGGLDQARGSLRLSCAASGSTLALYTMGWNRQATGKETELVAAISKNGGRTYYADSVKGRFTISRDNAKNTVYLQMYSLKPEDTAVYYCAAASGSYRGYDFWGQGSQVTVSS,high polyreactivity
